{
  "source": "patent US20200108156",
  "key": {"[1]": {"test_system": "Cy5.5-NFP2 nanofiber peptide construct, mPEG2000 KLDLKLDLKLDLK-Cy5.5"}, "[2]": {"test_system": "DM1-MCC-NFP2 (DM1-loaded NFP2 nanofiber)"}, "[3]": {"test_system": "Cy5.5-NFP1 nanofiber peptide construct, mPEG2000-KKKKKKKLDLKLDLKLDLK-Cy5.5"}, "[4]": {"test_system": "FITC-NFP1 nanofiber peptide construct, mPEG2000-KKKKKKKLDLKLDLKLDLK(FITC)"}, "[5]": {"test_system": "FITC-NFP2 nanofiber peptide construct, mPEG2000-KLDLKLDLKLDLK(FITC)"}, "[6]": {"test_system": "DM1-MCC-NFP1 (DM1-loaded NFP1 nanofiber)"}},
  "data": [
    {"substance": "Cathepsin B (CathB), purified from bovine spleen (EMD Millipore)", "values": [
      {"measurement": "fluorescence recovery after CathB activation", "setting": "[1]", "value": "the fluorescence of Cy5.5-NFP2 was only slightly increased after exposure to CathB"},
      {"measurement": "drug metabolites after CathB digestion (HPLC, MALDI-TOF)", "setting": "[2]", "value": "For DM1-MCC-NFP2, no drug metabolite was identified during CathB digestion due to its slow release property"},
      {"measurement": "fluorescence recovery after CathB activation", "setting": "[3]", "value": "CathB digestion of Cy5.5-NFP1 led to the release of Cy5.5-peptide fragments, thus resulting in the recovery of the fluorescence signal"},
      {"measurement": "HPLC of nanofibers after 24 h CathB digestion (enzyme cleavage)", "setting": "[4]", "value": "CathB digested FITC-NFP1 into multiple peptide fragments after 24 hours"},
      {"measurement": "HPLC of nanofibers after 24 h CathB digestion (enzyme cleavage)", "setting": "[5]", "value": "only one fragment was identified when FITC-NFP2 was subjected to CathB digestion"},
      {"measurement": "drug metabolites after CathB digestion (HPLC, MALDI-TOF)", "setting": "[6]", "value": "After CathB digestion, Lys-MCC-DM1 ... was identified in DM1-MCC-NFP1"}
    ]}
  ]
}
